In US20240309076A1 one finds EC50 data, which are given here for one molecule.

In this test the target is recombinant full-length human Tau (human) (UniProt P10636). Briefly: indirect ELISA, Tau coated on the plate. A general note: An ELISA detects its analyte on a solid surface through an enzyme-linked reagent.

B1: NI-502.4P3 (antibody, V domains shown)
VH: EVQLVQSGAEVKKPGESLKISCKVSGYDFSKYWIGWVRQMPGKGLEWMGLIYPGDSDTRYSPSLEGQVSISADKSISAAYLQFSSLKASDSAMYYCVRKGYSAYLGGWFDPWGQGTLVTVSS
VL: DIQLTQSPDSLAASLGERVTINCRSSQNIFYNSNNKNFLAWYQQKAGQSPKLLIYWASTRESGVPDRFSGSGSGTDFTLTISGLQAGDVAVYFCQQYFTDAPTFGGGTKVEIK
As a reminder, the EC50 is the concentration needed to bring the measured effect to its halfway point. With B1, the EC50 is 15 nM.
